Results reported in US10093706, “Dominant positive hnRNP-E1 polypeptide compositions and methods” (Indiana University Research and Technology Corporation).

Assays:
hnRNP-E1(C293S) = hnRNP-E1(C293S) (Homo sapiens, UniProt Q15365 SEQ:1-356); test: no L-homocysteine; Scatchard; conditions: tags: GST fusion (pGEX-4T-1, E. coli BL21); label: 35S
Method: (§1) Specific binding was determined by subtracting values of non-specific binding with GST from those of total binding with GST-hnRNP-E1; (however, in Table 1 and FIG. 6G, non-specific binding using bovine serum albumin (BSA) was subtracted from total binding to GST-hnRNP-E1 to determine specific binding). The K_D was calculated from a Scatchard plot using GraphPad Prism 6 from GraphPad Software (San Diego, Calif.), as previously described in the art.

hnRNP-E1(G292A) = hnRNP-E1(G292A) (Homo sapiens, UniProt Q15365 SEQ:1-356, G292A); test: no L-homocysteine; Scatchard; no gel-shift signal in this condition (FIG. 1B); conditions: tags: GST fusion (pGEX-4T-1, E. coli BL21); label: 35S
Method: as §1

[1] = target: hnRNP-E1 (PCBP1) wild-type (Homo sapiens, UniProt Q15365 SEQ:1-356); test: EMSA; 15 uM L-homocysteine; complete quenching of signal; conditions: tags: GST fusion (pGEX-4T-1, E. coli BL21)
hnRNP-E1 (PCBP1) wild-type, sequence (Q15365 whole entry A205V, the tested form may be a part): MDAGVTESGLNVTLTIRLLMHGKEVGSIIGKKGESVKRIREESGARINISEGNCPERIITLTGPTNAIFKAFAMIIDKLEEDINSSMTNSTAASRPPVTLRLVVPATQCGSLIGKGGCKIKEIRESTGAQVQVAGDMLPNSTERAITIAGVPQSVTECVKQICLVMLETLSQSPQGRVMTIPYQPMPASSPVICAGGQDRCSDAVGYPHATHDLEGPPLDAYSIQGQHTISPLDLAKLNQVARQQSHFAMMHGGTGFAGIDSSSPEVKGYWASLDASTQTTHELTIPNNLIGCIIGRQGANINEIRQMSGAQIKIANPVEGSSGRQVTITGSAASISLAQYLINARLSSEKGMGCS

hnRNP-E1(G292A), sequence (Q15365 whole entry A205V/G292A, the tested form may be a part): as the sequence (Q15365 whole entry A205V, the tested form may be a part) above, with G292A counted along it
hnRNP-E1(C293S), sequence (Q15365 whole entry A205V/C293S, the tested form may be a part): as the sequence (Q15365 whole entry A205V, the tested form may be a part) above, with C293S counted along it

Binder | Kd (hnRNP-E1(C293S)) [nM] | Kd (hnRNP-E1(G292A)) [nM] | binding result [1]
CUCCCGCCCGCUCCCGCUCGCUCCC (ssRNA) [25-nt hnRNP-E1 mRNA 5'-UTR cis-element] | 0.39 | 2.02 | –
CUUCCGCCCGCUCCCGCUCGCUUCC (ssRNA) [25-nt cis-element mutation 6] | – | – | no binding
